In patent US20240124560A1:

Key:
[1] = molecular target: HIV-1 Env of isolate COT6 (wild-type) (HIV-1); assay: cell-based or functional assay
[2] = molecular target: HIV-1 Env of isolate COT6, mutant D674T (HIV-1); assay: cell-based or functional assay
[3] = molecular target: HIV-1 Env of isolate COT6, mutant D674E (HIV-1); assay: cell-based or functional assay
[4] = molecular target: 2F5-specific peptide; assay: ELISA on peptide MPER (659-671), antibody titrated

Row | EC50 (read off the curve) [4] | Substance | Fold increase in IC50 (wild-type COT6, the reference) [1] | Fold increase in IC50 relative to wild-type COT6 [2] | Fold increase in IC50 relative to wild-type COT6 [3]
1 |  | 10E8 (antibody) | 1 fold | 36 fold | 17.5 fold
2 | 6 ng/mL | 2F5 (antibody) |  |  | 
